# B1: 40 kDa protein: 40 kDa trypsin fragment of symplectin, C-terminal portion, SEQ ID NO:2 (protein, listed as Symplectoteuthis oualaniensis)
# chain: ATEPECPGDKQLLYNTNVAFNNEGDVVARYYKTHLFWEEGWFNSSKNYEMALWDTPIGKFGTFMCFDFQAVQLIEQYNVRHIAYPASWVNLPPIYQSIQSHSAFARFAKINLLAASVHRLETSTYGSGIYSPNGAEIFYFRPDIPKSKLLVAEILPIHVKKPEQTVVNFDNPVFPSEDDDVQDLFDRGDFAFLKYKRMTTRAGTVEVCQKSFCCKARYAVKDRFKEVYAVGVYDGLLSAGANNLYFQICTVIQCPHKKCGLKISKVRTHFKYLNLRADGWLDRYVFPSYTVMYNNYIALDPFVWNYTVAGGIETKPGTSTPLHSANLVARIYAKDSSKHVHQPHPIDEGVIKMAVKYMLYVMAAYVYAAS
# B2: recombinant symplectin protein: recombinant symplectin expressed in E. coli from pET-60 as a fusion protein with thioredoxin (protein)
# chain: FEHQVIPPKTDMETREEALDALKLNSDVYHEAVLESRSKGVKMIVFPEYGLYDINTLTRTRMDLMAEKVPHPKHGHRNPCDEPEYQTQSSEMLRTFSCMAKENDMYMVVNMAGREPCRRATEPECPGDKQLLYNTNVAFNNEGDVVARYYKTHLFWEEGWFNSSKNYEMALWDTPIGKFGTFMCFDFQAVQLIEQYNVRHIAYPASWVNLPPIYQSIQSHSAFARFAKINLLAASVHRLETSTYGSGIYSPNGAEIFYFRPDIPKSKLLVAEILPIHVKKPEQTVVNKDNPVFPSEDDDVQDLFDRGDFAFLKYKRMTTRAGTVEVCQKSFCCKARYAVKDRFKEVYAVGVYDGLLSAGANNLYFQICTVIQCPHKKCGLKISKVRTHFKYLNLRADGWLDRYVFPSYTVMYNNYIALDPFVWNYTVAGGIETKPGTSTPLHSANLVARIYAKDSSKHVHQPHPIDEGVIKMAVKYMLYVMAAYVYAAS
# modifications: left off: large carriers; things letters cannot carry
# notes: recombinant symplectin expressed in E. coli from pET-60 as a fusion protein with thioredoxin
# B3: symplectin: photoprotein derived from okinawan squid (Symplectoteuthis oualaniensis), 501 amino acids, SEQ ID NO:1 (protein, listed as Symplectoteuthis oualaniensis)
# chain: YVRPVSSWKVAVFEHQVIPPKTDMETREEALDALKLNSDVYHEAVLESRSKGVKMIVFPEYGLYDINTLTRTRMDLMAEKVPHPKHGHRNPCDEPEYQTQSSEMLRTFSCMAKENDMYMVVNMAGREPCRRATEPECPGDKQLLYNTNVAFNNEGDVVARYYKTHLFWEEGWFNSSKNYEMALWDTPIGKFGTFMCFDFQAVQLIEQYNVRHIAYPASWVNLPPIYQSIQSHSAFARFAKINLLAASVHRLETSTYGSGIYSPNGAEIFYFRPDIPKSKLLVAEILPIHVKKPEQTVVNKDNPVFPSEDDDVQDLFDRGDFAFLKYKRMTTRAGTVEVCQKSFCCKARYAVKDRFKEVYAVGVYDGLLSAGANNLYFQICTVIQCPHKKCGLKISKVRTHFKYLNLRADGWLDRYVFPSYTVMYNNYIALDPFVWNYTVAGGIETKPGTSTPLHSANLVARIYAKDSSKHVHQPHPIDEGVIKMAVKYMLYVMAAYVYAAS
# Key:
# [1] = luminescent ability of purified photoprotein and its trypsin fragments; assay type: biochemical, Symplectoteuthis oualaniensis; conditions: purified protein before and after trypsin digestion
# Text: From photogenic organ of okinawan squid, collected at the sea area of Okinawa Prefecture Japan, the photoprotein having a molecular mass of 60 kDa was separated and purified as a luminescent ability as an index. This photoprotein was soluble in a solution containing KCl at a concentration of more than 0.6M. At first, homogenate of the photogenic organ containing symplectin was washed by KCl solution (pH 6.0) of 0.4M. Then, it was extracted with a KCl solution of 0.6M, and a portion thereof was added to a buffer having pH of 8.0 to confirm the luminescent ability. Because of high salt concentration, means of chromatography applicable for purification of the extract was limited. When the purified protein was hydrolyzed by trypsin, two products having molecular masses of 40 kDa and 15 kDa were produced from the original protein of 60 kDa (FIG. 2). […] Fragments of 40 kDa and 15 kDa were recognized after trypsin digestion, particularly in lane 3 corresponding to the purified protein. […] However, the amino acid sequence of the 15 kDa protein was the same as the N-terminal amino acid sequence of the 60 kDa protein. […] Incidentally, the active region responsible for the photogenic function would exist at the C-terminal portion corresponding to the 40 kDa protein.
# [2] = bioluminescence assay of recombinant symplectin protein with dehydrocoeleneterazine; assay type: biochemical, Symplectoteuthis oualaniensis; conditions: complex with dehydrocoeleneterazine, 37° C. for 30 min, alkaline buffer (pH9.8) added
# Experimental: The PCR products were separated on an agarose gel succeeded by digestion with EcoRI and SalI. Then it was ligated to EcoRI and SalI site of pET-32a(+) to construct a vector. The vector was designated pET-60 and it was utilized for expression of symplectin protein. The E. coli strain BL21(DE3)pLysS, transformed by pET-60, was grown in Luria broth (LB) at 37° C. Expression of the protein was induced by addition of isopropyl-1-thio-b-D-galactopyranoside (IPTG). The cells were harvested by centrifugation and lysed by sonication in a buffer. The homogenate was centrifuged, and the supernatant was subjected to affinity chromatography using His-Bind Resin. The fusion protein with thioredoxin was purified by a step-wise manner elution with varied imidazole concentrations. The recombinant symplectin protein was obtained as a fusion protein with thioredoxin, according to the manipulation described above. The recombinant symplectin protein was subjected to bioluminescence assay. The recombinant symplectin protein was suspended in a buffer, mixed with chromophore dehydrocoeleneterazine, then protein-chromophore complex was formed by incubation at 37° C. for 30 min. The alkaline buffer (pH9.8) was added to increase pH of the protein-chromophore complex solution and the bioluminescence reaction was initiated. […]
# [3] = enzymatic characteristics and cation trigger of luminescence; assay type: biochemical, Symplectoteuthis oualaniensis; conditions: different from aequorin
# Text: The photoprotein of okinawan squid has a low solubility and there is no conventional method for research of the protein. When a surfactant to solubilize the membrane protein is used, luminescent activity of the okinawan squid photoprotein would be disrupted. By addition of KCl (a caotropic salt) to a buffer, the protein can be solubilized without disrupting its activity. The effects of various kinds of salts on the objective protein are examined in the terms of extraction efficiency and luminescent activity. […] Enzymatic characteristic of okinawan squid was investigated. […] (Isobe M. et al., Pure and Appl. Chem., (1998) Vol.70, 2085-2092).
# [4] = assay type: physicochemical, Symplectoteuthis oualaniensis
# Text: The photoprotein of okinawan squid has a low solubility and there is no conventional method for research of the protein. When a surfactant to solubilize the membrane protein is used, luminescent activity of the okinawan squid photoprotein would be disrupted. By addition of KCl (a caotropic salt) to a buffer, the protein can be solubilized without disrupting its activity. The effects of various kinds of salts on the objective protein are examined in the terms of extraction efficiency and luminescent activity. […] Enzymatic characteristic of okinawan squid was investigated. […] (Isobe M. et al., Pure and Appl. Chem., (1998) Vol.70, 2085-2092). From photogenic organ of okinawan squid, collected at the sea area of Okinawa Prefecture Japan, the photoprotein having a molecular mass of 60 kDa was separated and purified as a luminescent ability as an index. This photoprotein was soluble in a solution containing KCl at a concentration of more than 0.6M. At first, homogenate of the photogenic organ containing symplectin was washed by KCl solution (pH 6.0) of 0.4M. Then, it was extracted with a KCl solution of 0.6M, and a portion thereof was added to a buffer having pH of 8.0 to confirm the luminescent ability. Because of high salt concentration, means of chromatography applicable for purification of the extract was limited.
Molecule,ability to emit luminescence [1],ability to emit luminescence ([1]; listed as 40 kDa fragment),luminescence monitored by lumiphotometer [2],triggering of luminescence by a divalent cation [3],KCl concentration of solution in which the photoprotein is soluble [4],solubility into an aqueous solution [4]
B1,exhibited luminescence,exhibited photogenic activity,,,,
B2,,,obvious luminescence was detected,,,
B3,exhibited luminescence,,,not triggered by a divalent cation,more than 0.6 M,low

# From patent publication US7268215B2, “Photoprotein derived from okinawan squid and gene encoding the photoprotein” (Nagoya University, priority 2000, dated 2007)
